The target in data set [1] is SufA (E. coli) (UniProt P77667). The data set is described as follows: SPR. In general terms: In SPR one partner is held on a chip, and binding of the other changes the refractive index at the surface.
Data set [2] has as its target T1, (His)6-SufS (E. coli, UniProt P77444 1-406).
T1 sequence (looked up): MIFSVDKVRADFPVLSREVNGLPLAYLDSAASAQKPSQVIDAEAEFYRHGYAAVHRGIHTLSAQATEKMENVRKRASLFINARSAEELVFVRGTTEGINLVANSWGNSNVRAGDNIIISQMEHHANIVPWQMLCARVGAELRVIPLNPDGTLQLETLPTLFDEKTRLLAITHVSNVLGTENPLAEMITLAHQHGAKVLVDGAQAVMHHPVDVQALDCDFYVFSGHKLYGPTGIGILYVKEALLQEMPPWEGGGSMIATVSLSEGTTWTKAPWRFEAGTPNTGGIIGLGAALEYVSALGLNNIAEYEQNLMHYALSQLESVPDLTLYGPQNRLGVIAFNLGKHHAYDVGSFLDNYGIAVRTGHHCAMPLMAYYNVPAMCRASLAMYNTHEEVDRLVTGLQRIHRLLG
The experiment in a line: SPR.

The target in data set [3] is T2, SufB (E. coli, UniProt P77522 1-495).
T2 sequence (looked up): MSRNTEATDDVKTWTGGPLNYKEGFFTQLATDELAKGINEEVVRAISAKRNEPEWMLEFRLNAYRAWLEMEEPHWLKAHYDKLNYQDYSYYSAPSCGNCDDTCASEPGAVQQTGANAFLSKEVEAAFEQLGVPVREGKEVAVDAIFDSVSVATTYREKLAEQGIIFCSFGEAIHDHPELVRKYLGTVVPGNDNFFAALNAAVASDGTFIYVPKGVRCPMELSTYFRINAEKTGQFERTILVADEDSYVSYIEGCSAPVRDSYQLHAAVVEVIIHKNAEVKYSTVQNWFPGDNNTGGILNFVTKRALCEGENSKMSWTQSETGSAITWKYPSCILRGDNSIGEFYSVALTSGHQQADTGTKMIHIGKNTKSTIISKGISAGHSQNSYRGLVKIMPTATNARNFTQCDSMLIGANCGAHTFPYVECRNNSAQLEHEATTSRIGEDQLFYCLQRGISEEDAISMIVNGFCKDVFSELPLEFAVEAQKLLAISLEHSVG
The experiment in a line: cross-linking.

In data set [4] the target is T3, SufC (E. coli, UniProt P77499 1-248).
T3 sequence (looked up): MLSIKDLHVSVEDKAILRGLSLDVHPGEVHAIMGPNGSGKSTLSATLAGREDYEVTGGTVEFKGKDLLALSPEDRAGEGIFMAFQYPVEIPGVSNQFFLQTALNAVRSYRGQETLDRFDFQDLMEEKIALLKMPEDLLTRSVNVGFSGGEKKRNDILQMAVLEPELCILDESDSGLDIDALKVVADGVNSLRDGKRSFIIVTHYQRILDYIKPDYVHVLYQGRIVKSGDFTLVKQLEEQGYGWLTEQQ
The experiment in a line: cross-linking.

Data set [5] deals with the molecule itself. The experiment in a line: SEC.

For orientation: Kd means the equilibrium constant for the complex coming apart. Low readings indicate tighter binding, high ones weaker binding. Regarding “(His)6-SufS (from UniProt P77444 1-406) (enzyme)”, the Kd in data set [1] was 1400 nM.

B1: SufE (natural protein, E. coli, UniProt P76194 1-138, looked up)
chain: MALLPDKEKLLRNFLRCANWEEKYLYIIELGQRLPELRDEDRSPQNSIQGCQSQVWIVMRQNAQGIIELQGDSDAAIVKGLIAVVFILYDQMTPQDIVNFDVRPWFEKMALTQHLTPSRSQGLEAMIRAIRAKAAALS
In data set [2], B1 displayed a Kd of 1.1 nM.

B2: SufA pre-labeled with Mts-Atf-Biotin (natural protein, E. coli, UniProt P77667 1-122, looked up)
chain: MDMHSGTFNPQDFAWQGLTLTPAAAIHIRELVAKQPGMVGVRLGVKQTGCAGFGYVLDSVSEPDKDDLLFEHDGAKLFVPLQAMPFIDGTEVDFVREGLNQIFKFHNPKAQNECGCGESFGV
modifications: Mts-Atf-biotin on cysteine residues (reducible disulfide bonds)
On to B2, for which the binding result in data set [3] and in data set [4] was “binds” in each case.

B3: SufA (natural protein, E. coli, UniProt P77667 1-122, looked up)
chain: MDMHSGTFNPQDFAWQGLTLTPAAAIHIRELVAKQPGMVGVRLGVKQTGCAGFGYVLDSVSEPDKDDLLFEHDGAKLFVPLQAMPFIDGTEVDFVREGLNQIFKFHNPKAQNECGCGESFGV
As a reminder, the stoichiometry N is a count of units in the complex or per binding partner. As for B3, in data set [5], the “stoichiometry N” value turned out to be 2.

These data come from PMC2783425 (Biochemistry, 2009).
